Experimental findings from patent US20250236657A1 (TOSOH, published 2025) are described below.

To fix the notation:
B1: AVR10s_A330C (receptor)
chain: MGSAGESDQITLPKNEVQLNCYVLQEPPKGETSTYDWQLITHPRDYSGEMEGEHSQILKLSNLTPGLYEFKAVVEGQNAHSEGYVNVTVEPEPRKNRPPIAIVSPQFQEISLPTTSTVIDGSQSTDDDKIVQYHWEELKGPLREEKISEDTAILKLSKLVPGNYTFRLTVVDSDGATDSTTANLTVNKAVDHHHHHH
B2: AVR10s_V332Y (receptor)
chain: MGSAGESDQITLPKNEVQLNAYYLQEPPKGETSTYDWQLITHPRDYSGEMEGEHSQILKLSNLTPGLYEFKAVVEGQNAHSEGYVNVTVEPEPRKNRPPIAIVSPQFQEISLPTTSTVIDGSQSTDDDKIVQYHWEELKGPLREEKISEDTAILKLSKLVPGNYTFRLTVVDSDGATDSTTANLTVNKAVDHHHHHH
B3: AVR10s_A330F (receptor)
chain: MGSAGESDQITLPKNEVQLNFYVLQEPPKGETSTYDWQLITHPRDYSGEMEGEHSQILKLSNLTPGLYEFKAVVEGQNAHSEGYVNVTVEPEPRKNRPPIAIVSPQFQEISLPTTSTVIDGSQSTDDDKIVQYHWEELKGPLREEKISEDTAILKLSKLVPGNYTFRLTVVDSDGATDSTTANLTVNKAVDHHHHHH
B4: AVR10s_L348C (receptor)
chain: MGSAGESDQITLPKNEVQLNAYVLQEPPKGETSTYDWQCITHPRDYSGEMEGEHSQILKLSNLTPGLYEFKAVVEGQNAHSEGYVNVTVEPEPRKNRPPIAIVSPQFQEISLPTTSTVIDGSQSTDDDKIVQYHWEELKGPLREEKISEDTAILKLSKLVPGNYTFRLTVVDSDGATDSTTANLTVNKAVDHHHHHH
B5: AVR10s_A330L (receptor)
chain: MGSAGESDQITLPKNEVQLNLYVLQEPPKGETSTYDWQLITHPRDYSGEMEGEHSQILKLSNLTPGLYEFKAVVEGQNAHSEGYVNVTVEPEPRKNRPPIAIVSPQFQEISLPTTSTVIDGSQSTDDDKIVQYHWEELKGPLREEKISEDTAILKLSKLVPGNYTFRLTVVDSDGATDSTTANLTVNKAVDHHHHHH
B6: AVR10s_I349N (receptor)
chain: MGSAGESDQITLPKNEVQLNAYVLQEPPKGETSTYDWQLNTHPRDYSGEMEGEHSQILKLSNLTPGLYEFKAVVEGQNAHSEGYVNVTVEPEPRKNRPPIAIVSPQFQEISLPTTSTVIDGSQSTDDDKIVQYHWEELKGPLREEKISEDTAILKLSKLVPGNYTFRLTVVDSDGATDSTTANLTVNKAVDHHHHHH
B7: AVR10s_A330R (receptor)
chain: MGSAGESDQITLPKNEVQLNRYVLQEPPKGETSTYDWQLITHPRDYSGEMEGEHSQILKLSNLTPGLYEFKAVVEGQNAHSEGYVNVTVEPEPRKNRPPIAIVSPQFQEISLPTTSTVIDGSQSTDDDKIVQYHWEELKGPLREEKISEDTAILKLSKLVPGNYTFRLTVVDSDGATDSTTANLTVNKAVDHHHHHH
B8: AVR10s_L333C (receptor)
chain: MGSAGESDQITLPKNEVQLNAYVCQEPPKGETSTYDWQLITHPRDYSGEMEGEHSQILKLSNLTPGLYEFKAVVEGQNAHSEGYVNVTVEPEPRKNRPPIAIVSPQFQEISLPTTSTVIDGSQSTDDDKIVQYHWEELKGPLREEKISEDTAILKLSKLVPGNYTFRLTVVDSDGATDSTTANLTVNKAVDHHHHHH
B9: AVR10s_Q347S (receptor)
chain: MGSAGESDQITLPKNEVQLNAYVLQEPPKGETSTYDWSLITHPRDYSGEMEGEHSQILKLSNLTPGLYEFKAVVEGQNAHSEGYVNVTVEPEPRKNRPPIAIVSPQFQEISLPTTSTVIDGSQSTDDDKIVQYHWEELKGPLREEKISEDTAILKLSKLVPGNYTFRLTVVDSDGATDSTTANLTVNKAVDHHHHHH

This test addresses AAV vector (AAV5-EGFP), adeno-associated virus serotype 5 (adeno-associated virus serotype 5 (AAV5)). As to the kind of experiment: ELISA, AAV5-EGFP coated, culture supernatant, anti-6His, A450. On the technique in general: ELISA stands for enzyme-linked immunosorbent assay.
With B1, the Binding activity for AAV5 (vs AVR10s) (ratio (AVR10s = 1)) worked out at 1.94.

B2: the Binding activity for AAV5 (vs AVR10s) (ratio (AVR10s = 1)) is 1.5.

Regarding B3, the Binding activity for AAV5 (vs AVR10s) (ratio (AVR10s = 1)) was 1.68.

B4: the Binding activity for AAV5 (vs AVR10s) (ratio (AVR10s = 1)) stood at 1.19.

For B5, the Binding activity for AAV5 (vs AVR10s) (ratio (AVR10s = 1)) stood at 1.53.

For B6, the Binding activity for AAV5 (vs AVR10s) (ratio (AVR10s = 1)) is 1.13.

With B7, the Binding activity for AAV5 (vs AVR10s) (ratio (AVR10s = 1)) turned out to be 1.5.

As for B8, the Binding activity for AAV5 (vs AVR10s) (ratio (AVR10s = 1)) was 1.51.

B9: the Binding activity for AAV5 (vs AVR10s) (ratio (AVR10s = 1)) was 1.73.
